The values that follow come from patent WO2010064089A1.

In test [1] the target is C-Met-Rluc and C-Met-K1100A-YFP co-expressed in a CHO stable cell line (c-Met dimerization BRET model) (R. reniformis), P08581. The test is described as follows: cell-based or functional assay.
Test [2] has as its target C-Met-Rluc expressed with a mutated form of Gab1 fused to YFP in a CHO stable cell line (c-Met activation BRET model) (R. reniformis), P08581. Kind of test: cell-based or functional assay.

B1: murine 224G11 Mab (antibody, mouse IgG1, V domains shown)
VH: EVQLQQSGPELVKPGASVKISCKTSGYIFTAYTMHWVRQSLGESLDWIGGIKPNNGLANYNQKFKGKATLTVDKSSSTAYMDLRSLTSEDSAVYYCARSEITTEFDYWGQGTALTVSS
VL: DIVLTQSPASLAVSLGQRATISCRASESVDSYANSFMHWYQQKPGQPPKLLIYRASNLESGIPARFSGSGSRTDFTLTINPVEADDVATYYCQQSKEDPLTFGSGTKLEMKR
In test [1], B1 registered a BRET signal with Mab alone, c-Met dimerization model (% of HGF-induced signal) of 21.3 and an inhibition of the HGF induced BRET signal, c-Met dimerization model of 59.4%. This molecule also displayed an inhibition of the HGF induced BRET signal, c-Met activation model in test [2] of 56.4%.

B2: [224G11][MMCH chim] (antibody, human IgG1, V domains shown)
VH: EVQLQQSGPELVKPGASVKISCKTSGYIFTAYTMHWVRQSLGESLDWIGGIKPNNGLANYNQKFKGKATLTVDKSSSTAYMDLRSLTSEDSAVYYCARSEITTEFDYWGQGTALTVSS
VL: DIVLTQSPASLAVSLGQRATISCRASESVDSYANSFMHWYQQKPGQPPKLLIYRASNLESGIPARFSGSGSRTDFTLTINPVEADDVATYYCQQSKEDPLTFGSGTKLEMKR
As for B2, the inhibition of the HGF induced c-Met dimerization BRET signal in test [1] came to 52.5%. In addition, in test [2], the BRET signal with Mab alone, c-Met activation model is -2% and the inhibition of the HGF induced activation BRET signal came to 53.2%.

B3: [224G11][MH chim] (antibody, human IgG1, V domains shown)
VH: EVQLQQSGPELVKPGASVKISCKTSGYIFTAYTMHWVRQSLGESLDWIGGIKPNNGLANYNQKFKGKATLTVDKSSSTAYMDLRSLTSEDSAVYYCARSEITTEFDYWGQGTALTVSS
VL: DIVLTQSPASLAVSLGQRATISCRASESVDSYANSFMHWYQQKPGQPPKLLIYRASNLESGIPARFSGSGSRTDFTLTINPVEADDVATYYCQQSKEDPLTFGSGTKLEMKR
In test [1], B3 registered an inhibition of the HGF induced c-Met dimerization BRET signal of 61.8%. Moreover, in test [2], the BRET signal with Mab alone, c-Met activation model amounted to 5.1% and the inhibition of the HGF induced activation BRET signal stood at 59.7%.

B4: [224G11]chim (antibody, human IgG1, V domains shown)
VH: EVQLQQSGPELVKPGASVKISCKTSGYIFTAYTMHWVRQSLGESLDWIGGIKPNNGLANYNQKFKGKATLTVDKSSSTAYMDLRSLTSEDSAVYYCARSEITTEFDYWGQGTALTVSS
VL: DIVLTQSPASLAVSLGQRATISCRASESVDSYANSFMHWYQQKPGQPPKLLIYRASNLESGIPARFSGSGSRTDFTLTINPVEADDVATYYCQQSKEDPLTFGSGTKLEMKR
In test [1], B4 gave a BRET signal with Mab alone, c-Met dimerization model (% of HGF-induced signal) of 46.6 and an inhibition of the HGF induced BRET signal, c-Met dimerization model of 28.9%. In test [2], this molecule yielded a BRET signal with Mab alone, c-Met activation model (% of the HGF induced signal) of 32.9 and an inhibition of the HGF induced BRET signal, c-Met activation model of 34.5%.

B5: [224G11][MUP9H chim] (antibody, human IgG1, V domains shown)
VH: EVQLQQSGPELVKPGASVKISCKTSGYIFTAYTMHWVRQSLGESLDWIGGIKPNNGLANYNQKFKGKATLTVDKSSSTAYMDLRSLTSEDSAVYYCARSEITTEFDYWGQGTALTVSS
VL: DIVLTQSPASLAVSLGQRATISCRASESVDSYANSFMHWYQQKPGQPPKLLIYRASNLESGIPARFSGSGSRTDFTLTINPVEADDVATYYCQQSKEDPLTFGSGTKLEMKR
For B5, the inhibition of the HGF induced c-Met dimerization BRET signal in test [1] was 64.4%. In test [2], the BRET signal with Mab alone, c-Met activation model is 7.6% and the inhibition of the HGF induced activation BRET signal was determined as 64.4%.

B6: [224G11][IgG2 chim] (antibody)
heavy: EVQLQQSGPELVKPGASVKISCKTSGYIFTAYTMHWVRQSLGESLDWIGGIKPNNGLANYNQKFKGKATLTVDKSSSTAYMDLRSLTSEDSAVYYCARSEITTEFDYWGQGTALTVSSASTKGPSVFPLAPCSRSTSESTAALGCLVKDYFPEPVTVSWNSGALTSGVHTFPAVLQSSGLYSLSSVVTVPSSNFGTQTYTCNVDHKPSNTKVDKTVERKCCVECPPCPAPPVAGPSVFLFPPKPKDTLMISRTPEVTCVVVDVSHEDPEVQFNWYVDGVEVHNAKTKPREEQFNSTFRVVSVLTVVHQDWLNGKEYKCKVSNKGLPAPIEKTISKTKGQPREPQVYTLPPSREEMTKNQVSLTCLVKGFYPSDIAVEWESNGQPENNYKTTPPMLDSDGSFFLYSKLTVDKSRWQQGNVFSCSVMHEALHNHYTQKSLSLSPG
light: DIVLTQSPASLAVSLGQRATISCRASESVDSYANSFMHWYQQKPGQPPKLLIYRASNLESGIPARFSGSGSRTDFTLTINPVEADDVATYYCQQSKEDPLTFGSGTKLEMKRTVAAPSVFIFPPSDEQLKSGTASVVCLLNNFYPREAKVQWKVDNALQSGNSQESVTEQDSKDSTYSLSSTLTLSKADYEKHKVYACEVTHQGLSSPVTKSFNRGEC
As to B6, the inhibition of the HGF induced BRET signal, c-Met dimerization model in test [1] amounted to 62.4%. The same molecule gave an inhibition of the HGF effect, c-Met activation BRET model in test [2] of 66.3%.
